Measured values reported in article PMC2889002.

Target: GST fusion of the full-length cytoplasmic loop of connexin43 (GST-CLFL) (UniProt P23242)
Assay: pull-down

Sequence of UniProt P23242 (P23242 98-155): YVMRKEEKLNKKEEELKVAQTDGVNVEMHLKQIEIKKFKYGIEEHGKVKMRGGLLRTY

affinity relative to that of Cx43-CT for β-tubulin: 0.2 fold
Substance: β-tubulin (Tubulin β5/2c) of mouse brain (from UniProt P99024 1-444) (natural protein)
